According to patent US20110229478A1, “ERBB3 BASED METHODS AND COMPOSITIONS FOR TREATING NEOPLASMS” (ZENSUN (SHANGHAI) SCIENCE & TECHNOLOGY LIMITED, priority 2002, published 2011):
Several values for one entry are separate records, joined by “and”; a condition that tells them apart may be missing. Equal values may be shown once.

What was measured:
B2 and B3 antigen = experiment: Cross immunity of B2 and B3 antigen (ELISA antibody titer); settings: serum of immunized FVB transgenic mice, ELISA on wrapped B2 or B3 protein, 450 nm
Protocol: FVB transgenic mice were immuned with B2 protein and B3 protein respectively, 10 days thereafter, blood was withdrawn and antibody titer was tested with ELISA. 0.3 μg/hole of B2 and B3 was wrapped, 1:1000 B2 and B3 on each plate were titrated with standard serum respectively, cultured at 37° C. for 30 minutes, sealed with 1% BSA, added double antibody, color development for 15 minutes with DAD, tested with Bio-Rad 450 nm enzyme labeled device.

[1] = test system: transplanted tumour from spontaneous tumour of neu protein over-expressed FVB/N transgenic mice; experiment: Therapeutic effect of B3 vaccine in transplanted tumour model (Table 2); format: in vivo
Protocol: (§1) Transplanted tumour model, after immunohistological screening test, about 1000 mm^3 tumour mass was cut down from spontaneous tumour of neu protein over-expressed FVB/N transgenic mice. The tumour mass was abraded into single cells with nylon net, the amount injected under the breast of each FVB/N transgenic mice was 5×10^6 cells.
Nothing was administrated in the control group; 24 hours after the inoculation, SD32 and B3 vaccine injection started in SD32 and B3 experiment groups, the aforementioned vaccines were absorbed on 0.1 mg/ml of Al(OH)3 respectively, and injected multi-pointedly every 2 weeks for a total of three injections; the experiment was completed in 14 days after the third injection. Morbidity was monitored weekly, tumor size was measured weekly with vernier. Volume (length diameter×short diameter 2/2) of the tumor was used to represent their size, and curve of tumor growth was protracted,
Tumor weight was measured after completion of the experiment and tumor-inhibitory rate was calculated, inhibitory rate=[(tumor weight of control group−tumor weight of experiment groups)/tumor weight of control group]×100.

[2] = test system: tumor development in FVB/N transgenic mice (neu protein over-expression, spontaneous breast cancer); experiment: Preventive effect of B3, DE3-1 on tumor development; format: in vivo; settings: for Incidence of tumor growth / Time of tumor occurrence: injected abdominally every 20 days, 7 injections, 40 mice; for Tumor-inhibitory effect against the development of tumor, incidence versus negative control group: ×2 testing versus BSA + CFA control
Protocol: 8-10 weeks old FVB/N transgenic mice (bought from Jackson Lab USA) was selected as experiment animals, the mice were divided into 5 groups with 40 mice each, they were control group, B2, B3 and DE3-1 group; BSA, B2, SD32, B3, DE3-1 was mixed with Freud's adjuvant (CFA, complete Freud's adjuvant, bought from Sigma company) and injected abdominally every 20 days for 7 injections respectively to various groups. The dosage of BSA, B2, SD32, B3 and DE3-1 vaccine was 10, 5, 10, 1 and 10 μg/mouse/injection. Weekly monitor tumour development. The tumour development was verified and analysed statistically.
Objective of the present experiment is to explore whether there is preventive effect of B3 or DE3-1 vaccine on tumor development. The reason to choose this type of transgenic mice as experiment animal model, is because rat wild type neu cDNA controlled by mice breast virus promotor was transferred into the body of mice and produce over-expression of neu protein and spontaneous breast cancer occurred within 5-8 months in half of the mice. Natural course of tumor in the transgenic mice and its pathologic pattern is similar to that of human breast cancer. Therefore, it may have better therapeutic effect when used clinically. The sample contains 40 animals in each group, the aim of selecting such large sample is to ensure the number of cases which have the disorders will be greater than 10 animals, thus will be of greater implication statistically. The selection of dosage is based on the results of pre-experiments.

[3] = test system: transplanted tumour from spontaneous tumour of neu protein over-expressed FVB/N transgenic mice; experiment: Anti-tumor effect of rhErbB3-f12 (Table 4); format: in vivo
Text: as §1
(§2) Experiment on the therapeutic effect of various dosage of DE3-1 rhErbB3412 and rhErbB3-f78 on immune therapy against tumor.
(§3) Preparing animal and transplanted animal tumor model: The same as (Experiment on therapeutic effect of B3 and DE3-1 rhErbB3-f12 and rhErbB3-f78 vaccine on immune therapy against tumor). No treatment was given to the control group, histag protein was injected to the negative control group, and Adriamycin (Santou MingZhi Pharmaceuticals) was administered for the positive control group, 5 μg, 20 μg and 80 μg was given to DE3-1 group respectively.
(§4) Tumor weight was measured after completion of the experiment and tumor-inhibitory rate was calculated, tumor inhibitory rate=[(tumor weight of control group−tumor weight of experiment groups)/tumor weight of control group]×100.

[4] = test system: transplanted tumour from spontaneous tumour of neu protein over-expressed FVB/N transgenic mice; experiment: Therapeutic effect of various dosage of DE3-1 in transplanted tumour model (Table 3); format: in vivo
Text: as §1, §3
One day after the inoculation, Adriamycin 2.2 mg/kg was injected abdominally for consecutive 7 days in mice of the positive control group; histag protein+Al(OH)^3 was injected abdominally for mice of the negative control group; In DE3-1 group, the vaccine was absorbed on 0.1 mg of Al(OH)^3 and multi-points subcutaneous injection every 2 weeks for a total of 3 injections were carried out in mice. The experiment completed in 14 days after the third injection. Tumor development was monitored weekly, tumor size was measured with vernier and the size was expressed as (length diameter×short diameter 2/2), curve of tumor growth was protracted and analyzed statistically.
as §4

[5] = test system: transplanted tumour from spontaneous tumour of neu protein over-expressed FVB/N transgenic mice; experiment: Anti-tumor effect of rhErbB3-f78 (Table 5); format: in vivo
Text: as §1, §2, §3, §4

[6] = ADR 2.2 mg/kg injected abdominally for consecutive 7 days
[7] = 5 μg + Al(OH)3, subcutaneous every 2 weeks, 3 injections
[8] = 20 μg + Al(OH)3, subcutaneous every 2 weeks, 3 injections
[9] = 80 μg + Al(OH)3, subcutaneous every 2 weeks, 3 injections

With “B3: protein of ErbB3 extra-cell membrane region (SEQ ID NO:2), flag-tagged, expressed by eucaryotic cells; anti-tumor vaccine” the “Cross immunity between B2 and B3 antigen” value (B2 and B3 antigen) was “there isn't any cross immunity”, the “Tumor-inhibitory effect (significance)” value ([1]; t testing, P<0.01) was “significant tumor-inhibitory effect” and the Inhibitory rate ([1]; vaccine + Al(OH)3, every 2 weeks, three injections) was 33%. The Tumor size ([1]; vaccine + Al(OH)3, every 2 weeks, three injections, 5 weeks) was 5271.8 ± 658.9 mm3, the Tumor weight ([1]; vaccine + Al(OH)3, every 2 weeks, three injections, at completion of experiment) was 3.13 ± 0.33 g and the “Incidence of tumor growth” value ([2]; 5 μg/animal/dose + CFA) was 12.5%. For the same molecule, the “Time of tumor occurrence” value ([2]; 5 μg/animal/dose + CFA) was 22 weeks and 20 weeks and the “Tumor-inhibitory effect against the development of tumor, incidence versus negative control group” value [2] was “significant tumor-inhibitory effect”.

`CC(=O)O[C@H]1C(=O)[C@@]2(C)[C@H]([C@H](OC(=O)c3ccccc3)[C@]3(O)C[C@H](OC(=O)[C@H](O)[C@@H](NC(=O)c4ccccc4)c4ccccc4)C(C)=C1C3(C)C)[C@]1(OC(C)=O)CO[C@@H]1C[C@@H]2O` [Taxol, reference compound] gave an Inhibitory rate ([3]; 10 mg/kg, ip X 7 qd) of 44.32% and a Tumor weight ([3]; 10 mg/kg, ip X 7 qd) of 3.09 ± 1.08 g.

In the case of `COc1cccc2c1C(=O)c1c(O)c3c(c(O)c1C2=O)C[C@@](O)(C(=O)CO)C[C@@H]3O[C@H]1C[C@H](N)[C@H](O)[C@H](C)O1` [ADR, Adriamycin, reference compound], the Inhibitory rate [4, 6] is reported as 25.3%, the Tumor size [4, 6] is reported as 4603.1 ± 478.3 mm3 and the Tumor weight [4, 6] is reported as 3.564 ± 0.42 g. The Inhibitory rate ([5]; 2 mg/kg, ip X 7 qd) was 40.98% and the Tumor weight ([5]; 2 mg/kg, ip X 7 qd) was 0.648 ± 0.27 g.

B1: DE3-1: extra-cell membrane ErbB3 protein segment (SEQ ID NO:3) expressed by E. coli, N end fused with Trx Tag, His Tag and S-Tag (protein, listed as Homo sapiens)
chain: MRANDALQVLGLLFSLARGSEVGNSQAVCPGTLNGLSVTGDAENQYQTLYKLYERCEVVMGNLEIVLTGHNADLSFLQWIREVTGYVLVAMNEFSTLPLPNLRVVRGTQVYDGKFAIFVMLNYNTNSSHALRQLRLTQLTEILSGGVYIEKNDKLCHMDTIDWRDIVRDRDAEIVVKDNGRSCPPCHEVC
modifications: N-terminal Trx, His, S tags
With B1 the Inhibitory rate [4, 7] was 22.4%, the Tumor size [4, 7] was 5563.7 ± 600.6 mm3 and the Tumor weight [4, 7] was 3.687 ± 0.45 g. For the same molecule, the Tumor size [4, 8] was 4715.0 ± 434.8 mm3, the Tumor weight [4, 8] was 3.455 ± 0.41 g and the Inhibitory rate [4, 9] was 26.3%. The Tumor size [4, 9] was 4810.8 ± 460.5 mm3, the Tumor weight [4, 9] was 3.658 ± 0.37 g and the “Incidence of tumor growth” value ([2]; 10 μg/animal/dose + CFA) was 35%. The “Time of tumor occurrence” value ([2]; 10 μg/animal/dose + CFA) was 23 weeks and the “Tumor-inhibitory effect against the development of tumor, incidence versus negative control group” value [2] was “not significantly different”.

B2: rhErbB3-f12: protein segment of ErbB3 extra-cell membrane region (SEQ ID NO:14) expressed by E. coli (protein, listed as Homo sapiens)
chain: MKYLLPTAAAGLLLLAAQPAMAMDIKHNRPRRDCVAEGKVCDPLCSSGGCWGPGPGQCLSCRNYSRGGVCVTHCNFLNGEPLEHHHHHH
B2 gave an Inhibitory rate ([3]; 0.25 mg/kg, sc X 3 q14d) of 58.39%, a Tumor weight ([3]; 0.25 mg/kg, sc X 3 q14d) of 2.31 ± 0.40 g and an Inhibitory rate ([3]; 0.5 mg/kg, sc X 3 q14d) of 52.61%. It also gave a Tumor weight ([3]; 0.5 mg/kg, sc X 3 q14d) of 2.62 ± 0.67 g, an Inhibitory rate ([3]; 1 mg/kg, sc X 3 q14d) of 56.76% and a Tumor weight ([3]; 1 mg/kg, sc X 3 q14d) of 2.40 ± 0.49 g.

B3: rhErbB3-f78: ErbB3 extra-cell membrane protein segment (SEQ ID NO:16) expressed by E. coli (protein, listed as Homo sapiens)
chain: MVCVASCPHNFVVDQTSCVRACPPDKMEVDKNGLKMCEPCGGLCPKACEGTGSGSRFQTVDSSNIDGFVNCTKILGNLDFLITGLNGDPWHKIPALDPEKLNVFRTVREITGYLNIQSWPPHMHNFSVFSNLTTIGGRSKLAAALEHHHHHH
B3 gave an Inhibitory rate ([5]; 2.5 mg/kg, sc X 3 q14d) of 60.38% and a Tumor weight ([5]; 2.5 mg/kg, sc X 3 q14d) of 0.435 ± 0.12 g.
